Source: paper PMC9487866 (Immunity, 2022)

Target: Pfs48/45-6C wild type (Plasmodium falciparum 3D7, UniProt Q8I6T1)
Assay: BLI
Conditions: both partners purified

Pfs48/45-6C wild type, sequence (Q8I6T1 291-428): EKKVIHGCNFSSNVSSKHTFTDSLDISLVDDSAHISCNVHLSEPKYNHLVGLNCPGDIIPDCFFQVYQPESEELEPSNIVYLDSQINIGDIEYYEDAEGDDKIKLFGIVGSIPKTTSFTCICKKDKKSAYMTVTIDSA

B1: TB31F Fab (Fab, V domains shown)
VH: EVQLVQSGGGLVQPGGSLRLSCAASGFTFNNYWMSWVRQAPGKGLEWVSSISNIGGTIYYPDSVKGRFTISRDNSKNTLYLQMNSLRAEDTAVYYCTRDLRMSDYFDYWGQGTMVTVSS
VL: NFMLTQPHSVSESPGKTVTISCTRSTGNIGSNYVSWYQQRPGSSPTTVIYRDDQRPSGVPDRFSGSIDRSSNSASLTISGLKTEDEADYYCHSYSTGMYIFGGGTKLTVL
Kd: 3.1 nM
